Laboratory results taken from patent publication EP4703474A1, “ANTI-LRRC15 ANTIBODY” (priority 2023, dated 2024).

Experiments:
[1] = tested on: LRRC15-positive human melanoma cell line Hs294T; assay: In vitro cell growth inhibitory activity (CellTiter-Glo 2.0); format: cell-based; details: 20 ng/mL TGFβ1-containing medium, 0.0002 to 1.5 µg/mL, 6 days of culture, compared to control hIgG-PBD
Procedure: (§1) LRRC15-positive human osteosarcoma cell line HuO9 (JCRB) was seeded in 10% FBS-containing RPMI medium at 5 x 10^3 cells/50 μL/well, LRRC15-positive human melanoma cell line Hs294T was seeded in 10% FBS and 20 ng/mL TGFβ1-containing RPMI medium at 5 x 10^3 cells/50 μL/well, or, as a negative control, LRRC15-negative HEK293α was seeded in 10% FBS-containing RPMI medium at 2 x 10^3 cells/50 μL/well in a 96-well plate, and cultured overnight under conditions of 37°C and 5% CO2. The next day, the three types of hR024-drug conjugates (clone names of […]-PBD, […]-V1-PBD, and […]-V2-PBD) prepared in Example 5 and the control hIgG-PBD were diluted at a common ratio of 3 to a final concentration of 0.0002 (μg/mL) from 1.5 (μg/mL) and added. After 6 days of culture, the number of viable cells was measured by quantification of ATP using CellTiter-Glo 2.0 Assay (Promega).

[2] = tested on: LRRC15-positive human osteosarcoma cell line HuO9; assay: as above; format: cell-based; details: 0.0002 to 1.5 µg/mL, 6 days of culture, compared to control hIgG-PBD
Procedure: as §1

[3] = tested on: LRRC15-negative HEK293α; assay: In vitro cell growth inhibitory activity (CellTiter-Glo 2.0), negative control cells; format: cell-based; details: 0.0002 to 1.5 µg/mL, 6 days of culture, compared to control hIgG-PBD
Procedure: as §1

[4] = tested on: LRRC15-positive human osteosarcoma cell line HuO9; assay: In vivo antitumor effect, HuO9 subcutaneous transplant model; details: tail vein, on Day 10, female SCID mice
Procedure: The antitumor effects of the antibody-drug conjugates were evaluated by using animal models in which cells of the human tumor cell line had been transplanted into immunodeficient mice. 4 to 6 Week-old SCID mice (CB17/Icr-Prkdc[scid]/CrlCrlj, Jackson Laboratory Japan, Inc.) were habituated for 3 days or more under SPF conditions before experimental use. The mice were fed with sterilized solid feed (FR-2, Funabashi Farms Co., Ltd.) and given sterilized tap water (prepared by adding a solution of 5 to 15 ppm sodium hypochlorite). The major and minor diameters of the transplanted tumors were measured twice a week with an electronic digital caliper ([…] Corporation), and the estimated tumor volume was calculated using the following formula. Estimated tumor volume (mm^3) = 1/2 × major diameter (mm) × [minor diameter (mm)]^2 All antibody-drug conjugates were diluted with ABS and administered into the tail vein at doses shown in each Example. In addition, ABS (vehicle) or control hIgG-PBD prepared in Reference Example 4 was administered as the control group, in a similar manner. 5 to 6 Mice were used per group in the experiment. Based on publicly known information, LRRC15-positive human osteosarcoma cell line HuO9 (JCRB) was suspended in Matrigel (Corning Incorporated), 5.0 × 10^6 cells were subcutaneously transplanted into the right flank of female SCID mice (Day 0), and random grouping was performed on Day 10. On the day of grouping, the vehicle, the antibody-drug conjugates […]-PBD, […]-V1-PBD, and […]-V2-PBD prepared in Example 5, or the control hIgG-PBD prepared in Reference Example 4 was administered at a dose of 0.4 mg/kg, and the huM25-MMAE prepared in Reference Example 5 was administered at a dose of 0.4 mg/kg or 3.6 mg/kg into the tail vein. The abscissa indicates the number of days, and the ordinate indicates estimated tumor volume, and the error bars indicate SEM values. […] The antitumor effects of the antibody-drug conjugates were evaluated by using animal models in which cells of a human tumor cell line had been transplanted into immunodeficient mice, or cells of a mouse tumor cell line had been transplanted into immunocompetent mice. 4 to 6 Week-old SCID mice (CB17/Icr-Prkdc[scid]/CrlCrlj, Jackson Laboratory Japan, Inc.), NSG mice (NOD.Cg-Prkdcscid Il2rgtm1Wjl/SzJ, Jackson Laboratory Japan, Inc.), or B6J mice (C57BL/6J, Jackson Laboratory Japan, Inc.) were habituated for 3 days or more under SPF conditions before experimental use. The mice were fed with sterilized solid feed and given sterilized tap water. The major and minor diameters of the transplanted tumors were measured twice a week with an electronic digital caliper (Mitutoyo Corporation), and the estimated tumor volume was calculated using the following formula. Estimated tumor volume (mm^3) = 1/2 × major diameter (mm) × [minor diameter (mm)]^2 All antibody-drug conjugates were diluted with ABS and administered into the tail vein at doses shown in each Example. In addition, ABS (vehicle) or control hIgG-PBD prepared in Reference Example 4 was administered as the control group, in a similar manner. 5 to 6 Mice were used per group in the experiment. Based on publicly known information, LRRC15-positive human osteosarcoma cell line HuO9 (JCRB) was suspended in Matrigel (Corning Incorporated), 5.0 × 10^6 cells were subcutaneously transplanted into the right flank of female SCID mice (Day 0), and random grouping was performed on Day 10. On the day of grouping, a vehicle, the antibody-drug conjugate […]-V1-PBD or […]-V2-PBD prepared in Example 5, or huM25-PBD prepared in Reference Example 6-2 was administered into the tail vein at a dose of 0.3 mg/kg. The abscissa indicates the number of days, and the ordinate indicates estimated tumor volume, and the error bars indicate SEM values.

[5] = 0.4 mg/kg, huM25-MMAE at 0.4 mg/kg or 3.6 mg/kg
[6] = 0.3 mg/kg, huM25-PBD at the same dose

Row | Molecule | inhibitory activity against cell growth [1] | inhibitory activity against cell growth [2] | inhibitory activity against cell growth [3] | antitumor effect (estimated tumor volume) [4, 5] | antitumor effect (estimated tumor volume) [4, 6] | tumor regression ([4]; 0.4 mg/kg)
1 | H02L01-PBD (conjugate) heavy: EVQLVESGGGLVQPGGSLRLSCAASGFTFRDYYMAWVRQAPGKGLEWVSSIGFDESRTYYADSVKGRFTISRDDSKNTLYLQMNSLRAEDTAVYYCARHGVSYYSGDNWFAYWGQGTLVTVSSASTKGPSVFPLAPSSKSTSGGTAALGCLVKDYFPEPVTVSWNSGALTSGVHTFPAVLQSSGLYSLSSVVTVPSSSLGTQTYICNVNHKPSNTKVDKKVEPKSCDKTHTCPPCPAPEAAGGPSVFLFPPKPKDTLMISRTPEVTCVVVDVSHEDPEVKFNWYVDGVEVHNAKTKPREEQYNSTYRVVSVLTVLHQDWLNGKEYKCKVSNKALAAPIEKTISKAKGQPREPQVYTLPPSREEMTKNQVSLTCLVKGFYPSDIAVEWESNGQPENNYKTTPPVLDSDGSFFLYSKLTVDKSRWQQGNVFSCSVMHEALHNHYTQKSLSLSPGK light: DIQMTQSPSSLSASVGDRVTITCKSSQGLLYSGDQKNYLAWYQQKPGKAPKLLIYWASTRQSGVPSRFSGSGSGTDFTLTISSLQPEDFATYYCQQYYDPPYTFGQGTKVEIKRTVAAPSVFIFPPSDEQLKSGTASVVCLLNNFYPREAKVQWKVDNALQSGNSQESVTEQDSKDSTYSLSSTLTLSKADYEKHKVYACEVTHQGLSSPVTKSFNRGEC | inhibited tumor cell proliferation when added at a lower concentration | inhibited tumor cell proliferation when added at a lower concentration | growth inhibitory activity equivalent to that of the control hIgG-PBD | antitumor activity higher than that of the vehicle, the control hIgG-PBD, and huM25-MMAE |  | 
2 | H02L01-V1-PBD (conjugate) heavy: EVQLVESGGGLVQPGGSLRLSCAASGFTFRDYYMAWVRQAPGKGLEWVSSIGFDESRTYYADSVKGRFTISRDDSKNTLYLQMNSLRAEDTAVYYCARHGVSKYSGDNWFAYWGQGTLVTVSSASTKGPSVFPLAPSSKSTSGGTAALGCLVKDYFPEPVTVSWNSGALTSGVHTFPAVLQSSGLYSLSSVVTVPSSSLGTQTYICNVNHKPSNTKVDKKVEPKSCDKTHTCPPCPAPEAAGGPSVFLFPPKPKDTLMISRTPEVTCVVVDVSHEDPEVKFNWYVDGVEVHNAKTKPREEQYNSTYRVVSVLTVLHQDWLNGKEYKCKVSNKALAAPIEKTISKAKGQPREPQVYTLPPSREEMTKNQVSLTCLVKGFYPSDIAVEWESNGQPENNYKTTPPVLDSDGSFFLYSKLTVDKSRWQQGNVFSCSVMHEALHNHYTQKSLSLSPGK light: DIQMTQSPSSLSASVGDRVTITCKSSQGLLYSGDQKNYLAWYQQKPGKAPKLLIYWASTRQSGVPSRFSGSGSGTDFTLTISSLQPEDFATYYCQQYYDPPYTFGQGTKVEIKRTVAAPSVFIFPPSDEQLKSGTASVVCLLNNFYPREAKVQWKVDNALQSGNSQESVTEQDSKDSTYSLSSTLTLSKADYEKHKVYACEVTHQGLSSPVTKSFNRGEC | inhibited tumor cell proliferation when added at a lower concentration | inhibited tumor cell proliferation when added at a lower concentration | growth inhibitory activity equivalent to that of the control hIgG-PBD | antitumor activity higher than that of the vehicle, the control hIgG-PBD, and huM25-MMAE | antitumor activity higher than that of the vehicle and huM25-PBD | lead to tumor regression
3 | H02L01-V2-PBD (conjugate) heavy: EVQLVESGGGLVQPGGSLRLSCAASGFTFRDYYMAWVRQAPGKGLEWVSSIGFDESRTYYADSVKGRFTISRDDSKNTLYLQMNSLRAEDTAVYYCARHGVSRYSGDNWFAYWGQGTLVTVSSASTKGPSVFPLAPSSKSTSGGTAALGCLVKDYFPEPVTVSWNSGALTSGVHTFPAVLQSSGLYSLSSVVTVPSSSLGTQTYICNVNHKPSNTKVDKKVEPKSCDKTHTCPPCPAPEAAGGPSVFLFPPKPKDTLMISRTPEVTCVVVDVSHEDPEVKFNWYVDGVEVHNAKTKPREEQYNSTYRVVSVLTVLHQDWLNGKEYKCKVSNKALAAPIEKTISKAKGQPREPQVYTLPPSREEMTKNQVSLTCLVKGFYPSDIAVEWESNGQPENNYKTTPPVLDSDGSFFLYSKLTVDKSRWQQGNVFSCSVMHEALHNHYTQKSLSLSPGK light: DIQMTQSPSSLSASVGDRVTITCKSSQGLLYSGDQKNYLAWYQQKPGKAPKLLIYWASTRQSGVPSRFSGSGSGTDFTLTISSLQPEDFATYYCQQYYDPPYTFGQGTKVEIKRTVAAPSVFIFPPSDEQLKSGTASVVCLLNNFYPREAKVQWKVDNALQSGNSQESVTEQDSKDSTYSLSSTLTLSKADYEKHKVYACEVTHQGLSSPVTKSFNRGEC | inhibited tumor cell proliferation when added at a lower concentration | inhibited tumor cell proliferation when added at a lower concentration | growth inhibitory activity equivalent to that of the control hIgG-PBD | antitumor activity higher than that of the vehicle, the control hIgG-PBD, and huM25-MMAE | antitumor activity higher than that of the vehicle and huM25-PBD | lead to tumor regression
